Data from patent US20250066499A1 (SUNSHINE GUOJIAN PHARMACEUTICAL SHANGHAI, published 2025).
Positions count from the first letter of the chain named.

Tests used:
Test in all cases: ELISA; decline multiple of Top against CD73-ND
CD73-ND-his = target: T1, CD73-ND-his (human, UniProt P21589 27-317)
T1 construct: Biotinylated and captured on streptavidin in the ELISA
T1 sequence: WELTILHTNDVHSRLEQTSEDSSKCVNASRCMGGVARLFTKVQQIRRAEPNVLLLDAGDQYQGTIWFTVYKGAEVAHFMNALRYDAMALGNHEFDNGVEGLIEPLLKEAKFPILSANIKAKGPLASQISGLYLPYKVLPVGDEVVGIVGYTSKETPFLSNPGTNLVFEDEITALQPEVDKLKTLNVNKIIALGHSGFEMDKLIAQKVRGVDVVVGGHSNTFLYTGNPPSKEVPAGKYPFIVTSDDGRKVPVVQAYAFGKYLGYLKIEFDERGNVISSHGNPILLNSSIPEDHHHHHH
Description: (§1) The ELISA plates were coated with SA protein diluted to 1.5 μg/mL in coating buffer (50 mM carbonate coating buffer, pH 9.6) and incubated overnight at 4° C. The supernatant was discarded, and the plates were washed three times with PBST. Then, 5% skimmed milk powder prepared with PBS was added for blocking and the plates were incubated for 2 h at 37° C. After washing the plates once with PBST, CD73-biotin protein (prepared by biotinylating CD73-His protein according to the EZ-Link NHS-Biotin Reagent instructions) was diluted to 0.5 μg/mL and added at 100 μL/well for incubation at room temperature for 1 h. The plates were washed three times with PBST, and the prepared murine-derived monoclonal antibodies against human CD73 were serially diluted with 1% BSA buffer prepared with PBST and added to the ELISA plates at 100 μl/well. The plates were incubated at 37° C. for 1 h. After washing the plates three times with PBST, HRP-labeled goat anti-mouse IgG secondary antibody was added and the plates were incubated for 30 min at 37° C. After washing the plates three times with PBST, the residual droplets were patted dry on absorbent paper as much as possible. Then, 100 μl of TMB color developing solution was added to each well, and the plates were incubated in the dark at room temperature for 5 min for color development. Subsequently, 50 μl of 2M H₂SO₄ stop solution was added to each well to terminate the substrate reaction. The OD values were read at 450 nm using a multimode microplate reader to analyze the binding ability of the tested antibodies to the target antigen human CD73-His.
(§2) Referring to the experimental method in Example 3, the affinity of 48A11-HuV33 for various mutant proteins of CD73-ND was determined. The SA protein was diluted to 1 μg/mL for coating the ELISA plates, and the biotinylated CD73 protein (CD73-biotin) was used at a concentration of 0.1 μg/mL.

CD73-ND-L133A = target: T2, CD73-ND-L133A (human, UniProt P21589 27-317)
T2 construct: Alanine mutant of CD73-ND
T2 sequence: T1 sequence with L133A
Description: as §1, §2

CD73-ND-K136A = target: T3, CD73-ND-K136A (human, UniProt P21589 27-317)
T3 construct: Alanine mutant of CD73-ND
T3 sequence: T1 sequence with K136A
Description: as §1, §2

CD73-ND-V137A = target: T4, CD73-ND-V137A (human, UniProt P21589 27-317)
T4 construct: Alanine mutant of CD73-ND
T4 sequence: T1 sequence with V137A
Description: as §1, §2

CD73-ND-L138A = target: T5, CD73-ND-L138A (human, UniProt P21589 27-317)
T5 construct: Alanine mutant of CD73-ND
T5 sequence: T1 sequence with L138A
Description: as §1, §2

CD73-ND-N187A = target: T6, CD73-ND-N187A (human, UniProt P21589 27-317)
T6 construct: Alanine mutant of CD73-ND
T6 sequence: T1 sequence with N187A
Description: as §1, §2

B1: 48A11-HuV33 (antibody, human IgG4, V domains shown)
VH: QVQLVQSGAEVKKPGASVKVSCKASGYTFTSYWMHWVRQAPGQGLEWIGEINPSIGRTNYNEKFKSRVTLTRDTSTSTAYMELSSLRSEDTAVYYCARRVYGTMDYWGQGTLVTVSS
VL: DIQMTQSPSSLSASVGDRVTITCKASQDINSYLSWFQQKPGKSPKLLIYRANIWVDGVPSRFSGSGSGQDYTFTISSLQPEDIATYYCLQYDELYTFGQGTKVEIK
notes: Humanized
For B1, the “Ratio(Top)” value (CD73-ND-his) was 1 fold, the “Ratio(Top)” value (CD73-ND-L133A) was 2.3 fold and the “Ratio(Top)” value (CD73-ND-K136A) was 1 fold. The “Ratio(Top)” value (CD73-ND-V137A) was 1.3 fold, the “Ratio(Top)” value (CD73-ND-L138A) was 1.1 fold and the “Ratio(Top)” value (CD73-ND-N187A) was 1.1 fold.
